According to PMC2715101, “Dimerization of Translationally Controlled Tumor Protein Is Essential For Its Cytokine-Like Activity” (PLoS ONE, 2009):

How the values were obtained:
[1] = target: Del-N35TCTP-C172S (rat) (UniProt P63029); assay: SEC; Superdex 200 HR 10/30, 50 mM sodium phosphate pH 7.0, 150 mM NaCl, calibrated with molecular size markers
[2] = target: Del-N35TCTP-C172S (rat) (UniProt P63029)
[3] = target: TCTP in bronchoalveolar lavage fluid (BALF) of mice with airway inflammation (mouse (endogenous in BALB/c BALF)) (UniProt P63028); assay: non-reducing SDS-PAGE and Western blotting; BALF from OVA-OVA and N11TCTP-N11TCTP mice
[4] = target: rabbit Fc protein (Fc) (rabbit); assay: native gel or EMSA; Fc fusion proteins on a native gel, apparent molecular weights by a molecular size marker
[5] = target: Del-N35TCTP (residues 35-172) (rat) (UniProt P63029); assay: SEC; Superdex 200 HR 10/30, 50 mM sodium phosphate pH 7.0, 150 mM NaCl, calibrated with molecular size markers
[6] = target: Del-N35TCTP (residues 35-172) (rat) (UniProt P63029); assay: non-reducing SDS-PAGE; proteins completely reduced with 20 mM DTT, transferred to 50 mM Tris pH 7.5, 1 mM EDTA, then oxidized with 0.1, 1 or 10 mM H2O2
[7] = target: Del-N35TCTP (residues 35-172) (rat) (UniProt P63029)
[8] = target: Del-N35TCTP (residues 35-172) (rat) (UniProt P63029); assay: non-reducing SDS-PAGE; purified proteins boiled with or without β-ME, 15% gel, coomassie brilliant blue; dimer by intermolecular disulfide bond
[9] = target: Del-N35TCTP (residues 35-172) (rat) (UniProt P63029); assay: cross-linking; sulfhydryl crosslinkers BMOE (five-fold molar excess, 2 h) or BM(PEO)3 (five-fold molar excess, 1 h), room temperature, proteins first reduced with 20 mM DTT; each protein alone and their 1/2:1/2 molar mixture; reducing SDS-PAGE
[10] = target: Fc-fused human recombinant TCTP (Fc-HrTCTP) (human | rabbit) (UniProt P13693); assay: native gel or EMSA; Fc fusion proteins on a native gel, apparent molecular weights by a molecular size marker
[11] = target: the molecule itself; assay: non-reducing SDS-PAGE; purified proteins boiled with or without β-ME, 15% gel, coomassie brilliant blue; dimer by intermolecular disulfide bond
[12] = target: the molecule itself; assay: cell-based or functional assay

## Del-N35TCTP-C172S (from UniProt P63029 35-172) (domain or fragment)
[1]
  stoichiometry N: 2
[2]
  IL-8 secretion from BEAS-2B cells, 5 µm/ml protein, 24 h, percent of wild-type (Del-N35TCTP) (% of wild-type): 36

## TCTP in bronchoalveolar lavage fluid (BALF) of mice with airway inflammation (from UniProt P63028 1-172) (natural protein)
[3]
  stoichiometry N: 2

## rabbit Fc protein (Fc) (domain or fragment)
[4]
  stoichiometry N: 2

## Del-N35TCTP (residues 35-172) (from UniProt P63029 35-172) (domain or fragment)
[5]
  stoichiometry N: 2
[6]
  stoichiometry N: 2
[7]
  IL-8 secretion from BEAS-2B cells by BM(PEO)3-treated DTT-pretreated Del-N35TCTP, percent of DTT-untreated Del-N35TCTP (% of DTT-untreated Del-N35TCTP): 122
  IL-8 secretion from BEAS-2B cells by BMOE-treated DTT-pretreated Del-N35TCTP, percent of DTT-untreated Del-N35TCTP (% of DTT-untreated Del-N35TCTP): 108
  IL-8 secretion from BEAS-2B cells by DTT-treated Del-N35TCTP, percent of DTT-untreated Del-N35TCTP (% of DTT-untreated Del-N35TCTP): 71.7
[8]
  stoichiometry N: 2
[9]
  stoichiometry N: 2

## Fc-fused human recombinant TCTP (Fc-HrTCTP) (from UniProt P13693 1-172) (Fc fusion)
[10]
  stoichiometry N: 2

B1: Del-N11TCTP-C172S (domain or fragment, rat, UniProt P63029 11-172, looked up)
chain: DELFSDIYKIREIADGLCLEVEGKMVSRTEGAIDDSLIGGNASAEGPEGEGTESTVVTGVDIVMNHHLQETSFTKEAYKKYIKDYMKSLKGKLEEQKPERVKPFMTGAAEQIKHILANFNNYQFFIGENMNPDGMVALLDYREDGVTPFMIFFKDGLEMEKS
[11]
  stoichiometry N: 2
[12]
  IL-8 secretion from BEAS-2B cells, 5 µm/ml protein, 24 h, percent of wild-type (Del-N11TCTP): 52 % of wild-type

B2: Del-N11TCTP (residues 11-172) (domain or fragment, rat, UniProt P63029 11-172, looked up)
chain: DELFSDIYKIREIADGLCLEVEGKMVSRTEGAIDDSLIGGNASAEGPEGEGTESTVVTGVDIVMNHHLQETSFTKEAYKKYIKDYMKSLKGKLEEQKPERVKPFMTGAAEQIKHILANFNNYQFFIGENMNPDGMVALLDYREDGVTPFMIFFKDGLEMEKC
notes: No stop codon in the reverse primer; also called Del-N11HRF
[11]
  stoichiometry N: 2

B3: Del-N11TCTP-C28S (domain or fragment, rat, UniProt P63029 11-172, looked up)
chain: DELFSDIYKIREIADGLSLEVEGKMVSRTEGAIDDSLIGGNASAEGPEGEGTESTVVTGVDIVMNHHLQETSFTKEAYKKYIKDYMKSLKGKLEEQKPERVKPFMTGAAEQIKHILANFNNYQFFIGENMNPDGMVALLDYREDGVTPFMIFFKDGLEMEKC
notes: No stop codon in the reverse primer
[11]
  stoichiometry N: 2
